Results as given in patent publication US20180362665A1 (KATHOLIEKE UNIVERSITEIT LEUVEN, published 2018).

Molecular target: ovine ADAMTS13 (in sheep plasma) (sheep)
Assay: cell-based or functional assay

B1: anti-ADAMTS13 monoclonal antibody 17C7 (antibody, V domains shown)
VH: EVQLVESGGDLVKSGGSLKLSCAASGFIFSNYAMSWVRQTPEKRLEWGATITTGGFYTFYSDSVKGRFTISRDNAKNTLYLQMSSLRSEDTAMYYCARHRYDDYYALDYWGQGTSVTVSS
VL: ENVLTQSPAIMSTSPGEKVTMTCNVSSSVSYMRWFQQKSSTSPKLWIYDTSKLASGVPGRFSGSGSGHSYSLTISSMEADDVATYYCFQGNGYPLTFGAGTKLELK
half maximal inhibitory concentration (IC50) of ADAMTS13 activity in ovine plasma, FRETS-VWF71 assay: 2.4 mg/L
